Reference: US20220017612A1 (TILOS THERAPEUTICS, published 2022)

molecular target: biotinylated human LAP-TGFβ1 (Example 14) (human, UniProt P01137 30-390, biotinylated, sites not stated); assay: BLI, antigen on tip, CHO supernatant; ratio to wild type
Method: A total of 49 single alanine substitutions were made in the heavy and light chain CDRs of the antibody to identify critical residues for human LAP-TGFβ1 binding. In addition, residue A25 in the light chain was substituted with glycine. Plasmid DNA for these variants was transfected into ExpiCHO cells in 1 mL cultures on 24-well plates, along with wells containing no DNA (negative control) and wells transfected with DNA for the wild-type antibody (positive control). IgG concentrations in each well were determined by binding to Protein A-functionalized tips. Tips were dipped into wells containing the supernatants from each culture. IgG concentrations were determined by comparing the rate of signal change for each well against the rate of signal change for a standard curve of purified 20E6_H0.2aL1_hIgG1 antibody diluted into ExpiCHO media. CHO supernatants were diluted to 0.6 μg/mL in media. A streptavidin-functionalized tip was equilibrated in binding buffer (10 mM sodium phosphate, 150 mM sodium chloride, 1% (w/v) bovine serum albumin, 0.05% (w/v) sodium azide, pH 7.4) and then dipped in a 5 μg/mL solution of biotinylated human LAP-TGFβ1 in binding buffer for 60 seconds to load the tip with antigen. The antigen-loaded tip was then washed in binding buffer and placed in the diluted CHO supernatant. The antigen was allowed to bind to antibody for 5 minutes (association phase), and then the tip was moved to binding buffer (dissociation phase). The association and dissociation phases were fit to a 1:1 binding model to determine binding rate constants.

Sequence of biotinylated human LAP-TGFβ1 (Example 14) (P01137 30-390 limits assumed): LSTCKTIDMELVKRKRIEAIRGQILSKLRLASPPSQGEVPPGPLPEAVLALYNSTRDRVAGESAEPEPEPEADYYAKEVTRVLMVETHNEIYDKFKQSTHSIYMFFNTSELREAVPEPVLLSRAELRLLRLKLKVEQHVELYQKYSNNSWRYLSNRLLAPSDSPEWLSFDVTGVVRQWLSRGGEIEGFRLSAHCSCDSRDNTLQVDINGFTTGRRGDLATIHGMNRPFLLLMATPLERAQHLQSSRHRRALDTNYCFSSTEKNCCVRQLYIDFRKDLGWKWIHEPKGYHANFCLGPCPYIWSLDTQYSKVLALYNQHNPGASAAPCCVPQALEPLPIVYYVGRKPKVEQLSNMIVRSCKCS

Binder | KD,WT/KD,Ala
20E6_H0.2aL1_hIgG1 VH_G57A (antibody, V domains shown) VH: EVQLVQSGAEVKKPGASVKVSCKASGYTFTSYWMHWVRQAPGQGLEWMGRIDPQSGAIKYAQKFQGRATLTVDTSTSTAYMELSRLRSDDTAVYYCARWDYGGYFDVWGQGTLVTVSS VL: DIQMTQSPSSLSASVGDRVTITCRASQDITNYLNWYQQKPGKAVKLLIYYTSRLHSGVPSRFSGSGSGTDYTLTISSLQPEDFATYFCQQGDTLPWTFGQGTKLEIKR | 0.37
20E6_H0.2aL1_hIgG1 VH_T30A (antibody, V domains shown) VH: EVQLVQSGAEVKKPGASVKVSCKASGYTFASYWMHWVRQAPGQGLEWMGRIDPQSGGIKYAQKFQGRATLTVDTSTSTAYMELSRLRSDDTAVYYCARWDYGGYFDVWGQGTLVTVSS VL: DIQMTQSPSSLSASVGDRVTITCRASQDITNYLNWYQQKPGKAVKLLIYYTSRLHSGVPSRFSGSGSGTDYTLTISSLQPEDFATYFCQQGDTLPWTFGQGTKLEIKR | 0.94
20E6_H0.2aL1_hIgG1 VH_H35A (antibody, V domains shown) VH: EVQLVQSGAEVKKPGASVKVSCKASGYTFTSYWMAWVRQAPGQGLEWMGRIDPQSGGIKYAQKFQGRATLTVDTSTSTAYMELSRLRSDDTAVYYCARWDYGGYFDVWGQGTLVTVSS VL: DIQMTQSPSSLSASVGDRVTITCRASQDITNYLNWYQQKPGKAVKLLIYYTSRLHSGVPSRFSGSGSGTDYTLTISSLQPEDFATYFCQQGDTLPWTFGQGTKLEIKR | 2.07
20E6_H0.2aL1_hIgG1 VH_K59A (antibody, V domains shown) VH: EVQLVQSGAEVKKPGASVKVSCKASGYTFTSYWMHWVRQAPGQGLEWMGRIDPQSGGIAYAQKFQGRATLTVDTSTSTAYMELSRLRSDDTAVYYCARWDYGGYFDVWGQGTLVTVSS VL: DIQMTQSPSSLSASVGDRVTITCRASQDITNYLNWYQQKPGKAVKLLIYYTSRLHSGVPSRFSGSGSGTDYTLTISSLQPEDFATYFCQQGDTLPWTFGQGTKLEIKR | 0.69
20E6_H0.2aL1_hIgG1 VH_W33A (antibody, V domains shown) VH: EVQLVQSGAEVKKPGASVKVSCKASGYTFTSYAMHWVRQAPGQGLEWMGRIDPQSGGIKYAQKFQGRATLTVDTSTSTAYMELSRLRSDDTAVYYCARWDYGGYFDVWGQGTLVTVSS VL: DIQMTQSPSSLSASVGDRVTITCRASQDITNYLNWYQQKPGKAVKLLIYYTSRLHSGVPSRFSGSGSGTDYTLTISSLQPEDFATYFCQQGDTLPWTFGQGTKLEIKR | 0.12
20E6_H0.2aL1_hIgG1 VH_V107A (antibody, V domains shown) VH: EVQLVQSGAEVKKPGASVKVSCKASGYTFTSYWMHWVRQAPGQGLEWMGRIDPQSGGIKYAQKFQGRATLTVDTSTSTAYMELSRLRSDDTAVYYCARWDYGGYFDAWGQGTLVTVSS VL: DIQMTQSPSSLSASVGDRVTITCRASQDITNYLNWYQQKPGKAVKLLIYYTSRLHSGVPSRFSGSGSGTDYTLTISSLQPEDFATYFCQQGDTLPWTFGQGTKLEIKR | 1.08
20E6_H0.2aL1_hIgG1 VH_G26A (antibody, V domains shown) VH: EVQLVQSGAEVKKPGASVKVSCKASAYTFTSYWMHWVRQAPGQGLEWMGRIDPQSGGIKYAQKFQGRATLTVDTSTSTAYMELSRLRSDDTAVYYCARWDYGGYFDVWGQGTLVTVSS VL: DIQMTQSPSSLSASVGDRVTITCRASQDITNYLNWYQQKPGKAVKLLIYYTSRLHSGVPSRFSGSGSGTDYTLTISSLQPEDFATYFCQQGDTLPWTFGQGTKLEIKR | 1.4
20E6_H0.2aL1_hIgG1 VH_G56A (antibody, V domains shown) VH: EVQLVQSGAEVKKPGASVKVSCKASGYTFTSYWMHWVRQAPGQGLEWMGRIDPQSAGIKYAQKFQGRATLTVDTSTSTAYMELSRLRSDDTAVYYCARWDYGGYFDVWGQGTLVTVSS VL: DIQMTQSPSSLSASVGDRVTITCRASQDITNYLNWYQQKPGKAVKLLIYYTSRLHSGVPSRFSGSGSGTDYTLTISSLQPEDFATYFCQQGDTLPWTFGQGTKLEIKR | 1.62
20E6_H0.2aL1_hIgG1 VH_M34A (antibody, V domains shown) VH: EVQLVQSGAEVKKPGASVKVSCKASGYTFTSYWAHWVRQAPGQGLEWMGRIDPQSGGIKYAQKFQGRATLTVDTSTSTAYMELSRLRSDDTAVYYCARWDYGGYFDVWGQGTLVTVSS VL: DIQMTQSPSSLSASVGDRVTITCRASQDITNYLNWYQQKPGKAVKLLIYYTSRLHSGVPSRFSGSGSGTDYTLTISSLQPEDFATYFCQQGDTLPWTFGQGTKLEIKR | 0.84
20E6_H0.2aL1_hIgG1 VH_I58A (antibody, V domains shown) VH: EVQLVQSGAEVKKPGASVKVSCKASGYTFTSYWMHWVRQAPGQGLEWMGRIDPQSGGAKYAQKFQGRATLTVDTSTSTAYMELSRLRSDDTAVYYCARWDYGGYFDVWGQGTLVTVSS VL: DIQMTQSPSSLSASVGDRVTITCRASQDITNYLNWYQQKPGKAVKLLIYYTSRLHSGVPSRFSGSGSGTDYTLTISSLQPEDFATYFCQQGDTLPWTFGQGTKLEIKR | 0.52
20E6_H0.2aL1_hIgG1 VH_I51A (antibody, V domains shown) VH: EVQLVQSGAEVKKPGASVKVSCKASGYTFTSYWMHWVRQAPGQGLEWMGRADPQSGGIKYAQKFQGRATLTVDTSTSTAYMELSRLRSDDTAVYYCARWDYGGYFDVWGQGTLVTVSS VL: DIQMTQSPSSLSASVGDRVTITCRASQDITNYLNWYQQKPGKAVKLLIYYTSRLHSGVPSRFSGSGSGTDYTLTISSLQPEDFATYFCQQGDTLPWTFGQGTKLEIKR | 0.73
20E6_H0.2aL1_hIgG1 VH_S55A (antibody, V domains shown) VH: EVQLVQSGAEVKKPGASVKVSCKASGYTFTSYWMHWVRQAPGQGLEWMGRIDPQAGGIKYAQKFQGRATLTVDTSTSTAYMELSRLRSDDTAVYYCARWDYGGYFDVWGQGTLVTVSS VL: DIQMTQSPSSLSASVGDRVTITCRASQDITNYLNWYQQKPGKAVKLLIYYTSRLHSGVPSRFSGSGSGTDYTLTISSLQPEDFATYFCQQGDTLPWTFGQGTKLEIKR | 0.96

Second part, the binder after the results:

KD,WT/KD,Ala | Binder
0.71 | 20E6_H0.2aL1_hIgG1 VH_D52A (antibody, V domains shown) VH: EVQLVQSGAEVKKPGASVKVSCKASGYTFTSYWMHWVRQAPGQGLEWMGRIAPQSGGIKYAQKFQGRATLTVDTSTSTAYMELSRLRSDDTAVYYCARWDYGGYFDVWGQGTLVTVSS VL: DIQMTQSPSSLSASVGDRVTITCRASQDITNYLNWYQQKPGKAVKLLIYYTSRLHSGVPSRFSGSGSGTDYTLTISSLQPEDFATYFCQQGDTLPWTFGQGTKLEIKR
0.67 | 20E6_H0.2aL1_hIgG1 VH_Q54A (antibody, V domains shown) VH: EVQLVQSGAEVKKPGASVKVSCKASGYTFTSYWMHWVRQAPGQGLEWMGRIDPASGGIKYAQKFQGRATLTVDTSTSTAYMELSRLRSDDTAVYYCARWDYGGYFDVWGQGTLVTVSS VL: DIQMTQSPSSLSASVGDRVTITCRASQDITNYLNWYQQKPGKAVKLLIYYTSRLHSGVPSRFSGSGSGTDYTLTISSLQPEDFATYFCQQGDTLPWTFGQGTKLEIKR
0.24 | 20E6_H0.2aL1_hIgG1 VH_D106A (antibody, V domains shown) VH: EVQLVQSGAEVKKPGASVKVSCKASGYTFTSYWMHWVRQAPGQGLEWMGRIDPQSGGIKYAQKFQGRATLTVDTSTSTAYMELSRLRSDDTAVYYCARWDYGGYFAVWGQGTLVTVSS VL: DIQMTQSPSSLSASVGDRVTITCRASQDITNYLNWYQQKPGKAVKLLIYYTSRLHSGVPSRFSGSGSGTDYTLTISSLQPEDFATYFCQQGDTLPWTFGQGTKLEIKR
0.6 | 20E6_H0.2aL1_hIgG1 VH_S31A (antibody, V domains shown) VH: EVQLVQSGAEVKKPGASVKVSCKASGYTFTAYWMHWVRQAPGQGLEWMGRIDPQSGGIKYAQKFQGRATLTVDTSTSTAYMELSRLRSDDTAVYYCARWDYGGYFDVWGQGTLVTVSS VL: DIQMTQSPSSLSASVGDRVTITCRASQDITNYLNWYQQKPGKAVKLLIYYTSRLHSGVPSRFSGSGSGTDYTLTISSLQPEDFATYFCQQGDTLPWTFGQGTKLEIKR
1.16 | 20E6_H0.2aL1_hIgG1 VH_F29A (antibody, V domains shown) VH: EVQLVQSGAEVKKPGASVKVSCKASGYTATSYWMHWVRQAPGQGLEWMGRIDPQSGGIKYAQKFQGRATLTVDTSTSTAYMELSRLRSDDTAVYYCARWDYGGYFDVWGQGTLVTVSS VL: DIQMTQSPSSLSASVGDRVTITCRASQDITNYLNWYQQKPGKAVKLLIYYTSRLHSGVPSRFSGSGSGTDYTLTISSLQPEDFATYFCQQGDTLPWTFGQGTKLEIKR
0.28 | 20E6_H0.2aL1_hIgG1 VH_D100A (antibody, V domains shown) VH: EVQLVQSGAEVKKPGASVKVSCKASGYTFTSYWMHWVRQAPGQGLEWMGRIDPQSGGIKYAQKFQGRATLTVDTSTSTAYMELSRLRSDDTAVYYCARWAYGGYFDVWGQGTLVTVSS VL: DIQMTQSPSSLSASVGDRVTITCRASQDITNYLNWYQQKPGKAVKLLIYYTSRLHSGVPSRFSGSGSGTDYTLTISSLQPEDFATYFCQQGDTLPWTFGQGTKLEIKR
0.97 | 20E6_H0.2aL1_hIgG1 VH_T28A (antibody, V domains shown) VH: EVQLVQSGAEVKKPGASVKVSCKASGYAFTSYWMHWVRQAPGQGLEWMGRIDPQSGGIKYAQKFQGRATLTVDTSTSTAYMELSRLRSDDTAVYYCARWDYGGYFDVWGQGTLVTVSS VL: DIQMTQSPSSLSASVGDRVTITCRASQDITNYLNWYQQKPGKAVKLLIYYTSRLHSGVPSRFSGSGSGTDYTLTISSLQPEDFATYFCQQGDTLPWTFGQGTKLEIKR
0.87 | 20E6_H0.2aL1_hIgG1 VH_P53A (antibody, V domains shown) VH: EVQLVQSGAEVKKPGASVKVSCKASGYTFTSYWMHWVRQAPGQGLEWMGRIDAQSGGIKYAQKFQGRATLTVDTSTSTAYMELSRLRSDDTAVYYCARWDYGGYFDVWGQGTLVTVSS VL: DIQMTQSPSSLSASVGDRVTITCRASQDITNYLNWYQQKPGKAVKLLIYYTSRLHSGVPSRFSGSGSGTDYTLTISSLQPEDFATYFCQQGDTLPWTFGQGTKLEIKR
